According to patent US12371675B2, “Process and microorganism for synthesis of adipic acid from carboxylic acids” (THE GOVERNING COUNCIL OF THE UNIVERSITY OF TORONTO, priority 2015, dated 2025):

Experiments:
[1] = AT activity coupled with alanine and glutamate dehydrogenases; assay type: biochemical; conditions: 10 mM adipaldehyde, alanine and glutamate amino-donors; ND = no activity was detected
[2] = Whole-cell biotransformation of muconic acid by E. coli expressing EREDs; assay type: cell-based; conditions: 0.7 mM, 24-hr incubation
Procedure: After a 24-hr incubation, no muconic acid or 2-hexenedioic acid were detected in the culture, and a 99% yield of adipic acid was obtained (FIGS. 8a, 8b, and 8c). […] The 3-hexenedioic acid-like compound appears to be an inefficient substrate for these EREDS. This is similar to the mutated 2,4-dienoyl-CoA reductases from E. coli, which catalyze hydrogenation of 2,4-dienoyl CoA into 3-enoyl CoA (Tu, X., Hubbard, P. A., Kim, J. J. P. & Schulz, H. Two distinct proton donors at the active site of Escherichia coli 2,4-dienoyl-CoA reductase are responsible for the formation of different products. Biochemistry 47, 1167-1175 (2008).).

[3] = In vitro reductase activity of purified EREDs, NADH oxidation at 340 nm; assay type: biochemical; conditions: for activity against 2-hexenedioic acid: purified enzyme, anaerobic, NADH, aqueous buffer
Procedure: (§1) The C═C reducing activity of EREDs was examined. Enzyme activity of purified EREDs was measured spectrophotometrically in 96-well plates by following incubation for 3-5 min at 30° C. in the anaerobic chamber as described in M. Buhler, H. Simon, Hoppe-Seyler's Zeitschrift fur Physiologische Chemie 1982, 363, 609-625. Buffers and reagents were degassed and sparged with Ar. Reaction mixture contained potassium phosphate (100 mM and pH 7.0), NADH (0.5 mM), indicated substrates, and proteins (0.1-50 μg) in a final volume of 200 μL. Enzyme reactions were monitored by following the decrease in absorbance at 340 nm (ε340 nm=6,220/M·cm) due to oxidation of NADH to NAD+.
(§2) For in vitro biochemical characterization, enzyme activities of purified EREDs were measured with 2-hexenedioic acid, cis-cis-muconic acid, trans-trans muconic acid, trans-cinnamic acid, trans-2-methyl-2-butenoic acid, trans-2-butenoic acid, acrolein, 2-cyclohexen-1-one, and 3-methyl-2-cyclohexenone. […] [Feng, J. et al. Discovery and Characterization of BlsE, a Radical S-Adenosyl-L-methionine Decarboxylase Involved in the Blasticidin S Biosynthetic Pathway. PLoS ONE 8 (2013)].
To increase the dissolved substrate concentration, 2-hexenedioic acid was dissolved in a reaction mixture containing […] (final concentration) isopropanol, and kinetic constants of EREDBC and EREDCA were determined.

[4] = as above; assay type: biochemical
Procedure: as §1, §2

[5] = Oxygen tolerance (residual activity) of purified EREDs on storage; assay type: physicochemical; conditions: for retained initial activity, storage in the absence of oxygen / retained initial activity, storage in the presence of air: three days; for retained initial activity, storage in the absence of oxygen: 4° C.
Procedure: Purified EREDs were placed in 5 mL glass tubes tightly capped with air-tight rubber stoppers. Anaerobic tubes were filled with anaerobic gas mixture (80% N2, 10% H2, and 10% CO2) and aerobic tubes were filled with atmospheric air. The tubes were kept on ice for a week and a small aliquots of EREDs (5 ul) were withdrawn by a syringe every day to measure residual activity in a reaction mixture containing 100 mM potassium phosphate buffer (pH 7.0), 0.5 mM NADH, indicated substrates (0.25 mM 2-hexenedioic acid for EREDBC and 0.75 mM cinnamic acid for EREDCA, and protein (1 μg) in a final volume of 200 μL.

[6] = purified enzyme, anaerobic, NADH

B1: Syrb2: aminotransferase (AT) from Pseudomonas syringae (protein)
chain: MSKKFALTAEQRASFEKNGFIGPFDAYSPEEMKETWKRTRLRLLDRSAAAYQDLDAISGGTNIANYDRHLDDDFLASHICRPEICDRVESILGPNVLCWRTEFFPKYPGDEGTDWHQADTFANASGKPQIIWPENEEFGGTITVWTAFTDANIANGCLQFIPGTQNSMNYDETKRMTYEPDANNSVVKDGVRRGFFGYDYRQLQIDENWKPDEASAVPMQMKAGQFIIFWSTLMHASYPHSGESQEMRMGFASRYVPSFVHVYPDSDHIEEYGGRISLEKYGAVQVIGDETPEYNRLVTHTTRGKKFEAV
- Adipaldehyde 10 mM U/mg [1]: 0.040 ± 0.001 U/mg

B2: EREDCK: 2-enoate reductase (ERED) from Clostridium kluyveri DSM 555 (protein)
chain: MKNKSLFEPIKIGNMEVKNKIAMAPMGAFGLVDNECCFNQRAVDYYVERAKGGTGLIITSVVKVENELDKVLTGVLPITSINPAKFIMTSSEMTERVHAYGSKIFLQLSMGFGRSGAPGGLLTSQPVSASAVPNYWDPTVTCRELTTSEVEWIVEKFAEGAKIAHKAGFDGVEIHAVHEGYLLDQFTLSIFNRRTDKYGGDLRGRLQLPIEIVEAIKTEVGSNFPVGLRYSVKSCIKDWGQGGLAEEDYVEKGRDLEEGLEAAKILEAAGYDAFNADLGTYDAWYWAHPPLYQKDGLYLPYTKELKKVVKIPVMVAGKMGMPDVAEGALEDEAADMVTLGRPLLCDAYWPKKVFTGQIDRIRPCIGCHTGCMGRGFEGRPLSCTVNPAAGRERYYEVKPAAAPKKVMIVGGGVAGMEAARITAMRGHKVSMYEGTKELGGQVIPASVPDFKIDDRRLLDWYRNEMKELKVKLVLDTNVTEEVVEKEKPDVVIIATGAKEIKLNLPGIEKDKVATVIEVLKGSKQVGENVLMVGGGLAGCETALYLAKQGKKVTIIEARDTILNAGKPVPHMNKIMLIDLLKNSGVNIITETSLLEVTDRGAILIDNKFKKQNIDADTVVIAVGFKADRELYNKLRDKVADLYLVGDANESANIMNAIWSANEIALNC
- yield of adipic acid from trans,trans-muconic acid [2]: 99%

B3: EREDCA: 2-enoate reductase (ERED) from Clostridium acetobutylicum DSM 1731 (protein)
chain: MNKYKKLFEPIKIGKCEIKNRFALAPMGPLGLADSEGGFNQRGIDYYTERAKGGTGLIITGVTFVDNEVEEHGMPNCPCPTHNPVQFVRTGREMTERIHAYNSKVFLQMSGGFGRVTIPTNLGEFPPVAPSPIQHRWLDKTCRELTVDEIKSIVKKFGEGAFNAKRAGFDGVQIHAVHEGYLIDQFAISLFNHRTDEYGGSLENRLRFAREIVEEIKNRCGEDFPVTLRYSPKSFIKDLRDGALPGEEFVEKGRDLDEGVEAAKLLVSYGYDALDTDVGSYDSWWWSHPPMYQEKGLYRKYAKLMKDTVDVPVICAGRMDDPDMALEAVENGTCDVISLGRPLLADPDYVNKLRSNKCKSIRPCISCQEGCMGRVQHYSMLNCAVNPQACKERANSLTPIIKSKKVLIVGGGVAGCEAARVLALRGHEPVLYEKSNRLGGNLIPGGAPSFKEDDIALADWYTNTLKELNVEVNLNSEVTKEQILNSKFDTVIVATGSTPKVFPLGDDEKVFTAAEVLLGQKDPGETTVVVGGGLVGCELALDLAKKGKKVTIVEALNKILALNGPLCSANSEMLQKLIPFNGIDVKANSKVKGYKNGLLKMETENGIEELPCDSVILSVGYKEENSLYKELEFEIPEIYLLGDARKVSNIMYGIWDAFEVANHI
- activity against 2-hexenedioic acid [3]: up to 0.05 U/mg protein
- yield of adipic acid from cis,cis-muconic acid [2]: 99%
- yield of adipic acid from trans,trans-muconic acid [2]: 99%
- activity against trans-2-butenoic acid [4, 6]: 0.008 U/mg protein
- activity against trans-cinnamic acid [4, 6]: 3.5 U/mg protein
- residual activity, storage in the presence of air ([5]; one day, air (21% oxygen)): 30%
- retained initial activity, storage in the absence of oxygen [5]: 19%
- retained initial activity, storage in the presence of air ([5]; air (21% oxygen)): completely inactivated

B4: gabT: aminotransferase (AT) from Escherichia coli (protein)
chain: MNSNKELMQRRSQAIPRGVGQIHPIFADRAENCRVWDVEGREYLDFAGGIAVLNTGHLHPKVVAAVEAQLKKLSHTCFQVLAYEPYLELCEIMNQKVPGDFAKKTLLVTTGSEAVENAVKIARAATKRSGTIAFSGAYHGRTHYTLALTGKVNPYSAGMGLMPGHVYRALYPCPLHGISEDDAIASIHRIFKNDAAPEDIAAIVIEPVQGEGGFYASSPAFMQRLRALCDEHGIMLIADEVQSGAGRTGTLFAMEQMGVAPDLTTFAKSIAGGFPLAGVTGRAEVMDAVAPGGLGGTYAGNPIACVAALEVLKVFEQENLLQKANDLGQKLKDGLLAIAEKHPEIGDVRGLGAMIAIELFEDGDHNKPDAKLTAEIVARARDKGLILLSCGPYYNVLRILVPLTIEDAQIRQGLEIISQCFDEAKQ
- Adipaldehyde 10 mM U/mg [1]: 0.337 ± 0.008 U/mg

B5: EREDBC: 2-enoate reductase (ERED) from Bacillus coagulans 36D1 (protein)
chain: MKYKKLFETVKIRNVELKNRYAMAPMGPLGLADAEGGFNQRGIEYYTARARGGTALIITGVTFVDNEVEEHGMPNVPCPTHNPVHFVRTSKEMTERIHAYDSKIFLQMSAGFGRVTIPTNLGEYPPVAPSPIPHRWLDKTCRELTVEEIHSIVRKFGDGAFNAKRAGFDGVQIHAVHEGYLLDQFAIAFFNKRTDAYGGPLENRLRFAREIVEEIKQRCGEDFPVTLRFSPKSFIKDWREGALPGEEFEEKGRDLDEGIEAAKLLVSYGYDALDVDVGSYDSWWWSHPPMYQKKGLYIPYARLVKEAVDVPVLCAGRMDNPDLALAALEDGACDIISLGRPLLADPDYVNKLRIGQVADIRPCLSCHEGCMGRIQEYSSLGCAVNPAACREKEAALTPALKKKRVLIAGGGVAGCEAARVLALRGHEPVIFEKSNRLGGNLIPGGAPDFKEDDLALVAWYEHTLERLGVEIHLNTALTKEEILAANVDAVLIATGSNPKILPLDGKNKVFTAEDVLLDKVDAGQHVVIVGGGLVGCELALNLAEKGKDVSLVEMQDKLLAVNGPLCHANSDMLERLVPFKGVQVYTSSKIVDTTEKTAVVDVDGELREIEADSIVLAVGYSAEKSLYEDLKFEVADLHVVGDARKVANIMYAIWDAYEVAANL
- Activity [U/mg protein] 2-Hexenedioic acid [29 mM] ([3]; 29 mM, dissolved in aqueous buffer): 0.09 ± 0.02 U/mg protein
- Activity [U/mg protein] 2-Hexenedioic acid [35 mM] ([3]; 35 mM, dissolved in 0.25 mM isopropanol): 2.3 ± 0.04 U/mg protein
- activity against 2-hexenedioic acid [3]: 0.09 U/mg protein
- yield of adipic acid from cis,cis-muconic acid [2]: 99%
- yield of adipic acid from trans,trans-muconic acid [2]: 99%
- Activity [U/mg protein] trans-Cinnamic acid [1.0 mM] ([4]; 1.0 mM, titrated with 1N NaOH): 0.39 ± 0.001 U/mg protein
- Activity [U/mg protein] Acrolein [15 mM] ([4]; 15 mM): 0.036 ± 0.005 U/mg protein
- Activity [U/mg protein] trans-2-Butenoic acid [50 mM] ([4]; 50 mM): 0.037 ± 0.010 U/mg protein
- Activity [U/mg protein] 2-Cyclohexen-1-one [200 mM] ([4]; 200 mM): 0.08 ± 0.03 U/mg protein
- Activity [U/mg protein] 3-Methyl-2-cyclohexenone [200 mM] ([4]; 200 mM): 0.13 ± 0.03 U/mg protein
- activity against 2-cyclohexen-1-one [4, 6]: 0.08 U/mg protein
- activity against 3-methyl-2-cyclohexenone [4, 6]: 0.13 U/mg protein
- activity against acrolein [4, 6]: 0.037 U/mg protein
- activity against trans-2-butenoic acid [4, 6]: 0.036 U/mg protein
- activity against trans-cinnamic acid [4, 6]: 0.39 U/mg protein
- retained initial activity, storage in the absence of oxygen [5]: 35%
- retained initial activity, storage in the presence of air ([5]; air (21% oxygen)): 33%

B6: Mll7127: aminotransferase (AT) from Rhizobium loti (protein)
chain: MLNQSNELNAWDRDHFFHPSTHMGTHARGESPTRIMAGGEGVTVWDNNGRKSIDAFAGLYCVNVGYGRQKIADAIATQAKNLAYYHAYVGHGTEASITLAKMIIDRAPKGMSRVYFGLSGSDANETNIKLIWYYNNVLGRPEKKKIISRWRGYHGSGVMTGSLTGLDLFHNAFDLPRAPVLHTEAPYYFRRTDRSMSEEQFSQHCADKLEEMILAEGPETIAAFIGEPILGTGGIVPPPAGYWEKIQAVLKKYDVLLVADEVVTGFGRLGTMFGSDHYGIKPDLITIAKGLTSAYAPLSGVIVADRVWQVLVQGSDKLGSLGHGWTYSAHPICVAAGVANLELIDEMDLVTNAGETGAYFRAELAKAVGGHKNVGEVRGDGMLAAVEFVADKDDRVFFDASQKIGPQVATALAASGVIGRAMPQGDILGFAPPLCLTREQADIVVSKTADAVKSVFANL
- Adipaldehyde 10 mM U/mg [1]: 0.063 ± 0.001 U/mg
